Data from PMC8050843.

Target: Ndc80C-GFP (S. cerevisiae Ndc80 complex with GFP at the C terminus of Spc24) (S. cerevisiae) (UniProt P40460)
Sequence of UniProt P40460 (P40460 whole entry, chain 1 of 4): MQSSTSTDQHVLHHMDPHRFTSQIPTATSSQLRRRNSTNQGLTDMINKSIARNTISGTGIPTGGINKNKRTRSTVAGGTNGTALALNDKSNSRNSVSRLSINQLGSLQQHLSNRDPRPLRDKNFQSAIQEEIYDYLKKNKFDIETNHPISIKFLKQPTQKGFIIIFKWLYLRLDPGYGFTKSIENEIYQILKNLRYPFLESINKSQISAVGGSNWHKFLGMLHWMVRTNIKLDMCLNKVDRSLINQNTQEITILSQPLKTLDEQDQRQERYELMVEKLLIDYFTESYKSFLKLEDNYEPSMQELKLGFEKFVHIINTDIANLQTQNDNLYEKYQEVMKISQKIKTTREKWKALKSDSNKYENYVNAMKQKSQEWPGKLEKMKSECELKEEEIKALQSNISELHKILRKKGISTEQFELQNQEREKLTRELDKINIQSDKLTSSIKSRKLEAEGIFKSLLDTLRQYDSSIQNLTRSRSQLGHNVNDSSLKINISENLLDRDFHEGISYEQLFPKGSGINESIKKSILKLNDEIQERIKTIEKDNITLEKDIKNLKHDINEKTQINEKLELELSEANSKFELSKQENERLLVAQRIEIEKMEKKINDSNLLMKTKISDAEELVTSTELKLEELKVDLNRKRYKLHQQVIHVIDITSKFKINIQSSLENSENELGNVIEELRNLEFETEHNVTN
Sequence of UniProt P40460 (P33895 whole entry, chain 2 of 4, further chain): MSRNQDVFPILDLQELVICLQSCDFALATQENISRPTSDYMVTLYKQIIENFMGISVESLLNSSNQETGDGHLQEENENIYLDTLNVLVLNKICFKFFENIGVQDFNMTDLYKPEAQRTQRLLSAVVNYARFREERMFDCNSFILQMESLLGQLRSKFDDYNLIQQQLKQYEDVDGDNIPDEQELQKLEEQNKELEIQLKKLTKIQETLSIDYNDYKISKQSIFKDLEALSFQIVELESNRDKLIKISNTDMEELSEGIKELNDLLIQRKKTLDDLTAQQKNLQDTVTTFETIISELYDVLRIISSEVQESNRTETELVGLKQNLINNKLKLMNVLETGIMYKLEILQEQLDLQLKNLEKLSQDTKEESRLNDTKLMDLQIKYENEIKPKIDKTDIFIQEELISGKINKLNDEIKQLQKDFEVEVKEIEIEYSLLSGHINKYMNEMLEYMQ
Sequence of UniProt P40460 (Q04477 whole entry, chain 3 of 4, further chain): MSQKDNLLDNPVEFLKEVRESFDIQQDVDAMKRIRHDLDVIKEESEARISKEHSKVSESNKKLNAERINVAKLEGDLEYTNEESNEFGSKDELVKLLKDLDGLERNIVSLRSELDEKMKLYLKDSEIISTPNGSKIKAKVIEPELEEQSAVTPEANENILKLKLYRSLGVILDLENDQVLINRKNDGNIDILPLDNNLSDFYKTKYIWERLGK
Sequence of UniProt P40460 (P40014 whole entry, chain 4 of 4, further chain): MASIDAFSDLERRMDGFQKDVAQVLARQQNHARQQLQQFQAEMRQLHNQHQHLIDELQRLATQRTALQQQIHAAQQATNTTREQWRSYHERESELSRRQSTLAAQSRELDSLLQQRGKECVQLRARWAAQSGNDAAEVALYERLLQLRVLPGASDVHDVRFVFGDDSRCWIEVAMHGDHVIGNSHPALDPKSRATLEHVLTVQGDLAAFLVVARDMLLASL

- detachment of the Ndc80C nanobead from the MT plus end following transient end-on attachment (end-on drop-off) in the absence of Dam1C, against its presence: 31%
Substance: Dam1C (S. cerevisiae Dam1 complex, without GFP) (from UniProt P53267 1-343; Q12248 1-94; P36131 1-295)
